Data published in PMC5995542.
One block for each substance: values may come before it.

How the values were obtained:
[1] = biological target: E. coli 70S ribosome termination complex labelled with Cy3 at protein L11 (PreHC, PostHC* or PostHC) (E. coli) (UniProt P0A7J7); assay: FRET or BRET; smFRET (TIRF), RF1-Cy5 (10 nM) on immobilised L11-Cy3 PreHC converted in situ to PostHC by RF1, with excess unlabelled RF3 (1 µM) and GTP (1 mM); 22°C
[2] = biological target: E. coli 70S ribosome termination complex labelled with Cy3 at protein L11 (PreHC, PostHC* or PostHC) (E. coli) (UniProt P0A7J7); assay: FRET or BRET; smFRET (TIRF) between factor-Cy5 (10 nM, in solution) and L11-Cy3 on PreHC or PostHC (peptide released by puromycin or by the factor) immobilised by mRNA-biotin:neutravidin; no RF3; imaging buffer pH 7.5, 15 mM MgCl2, 22°C; koff from residence times, limited by photobleaching (0.07–0.19 s^-1)
[3] = biological target: PostHC, post-hydrolysis termination complex: E. coli 70S ribosome labelled with Cy3 at protein L11, deacylated tRNAfMet in the P site and the stop codon UAA in the A site (E. coli) (UniProt P0A7J7); assay: FRET or BRET; single-molecule FRET by TIRF, residence time: RF2-Cy5 (10 nM) on L11-Cy3 PostHC (peptide released by RF2) immobilised through mRNA-biotin:neutravidin; no RF3; imaging buffer pH 7.5, 15 mM MgCl2, 22°C
[4] = biological target: PostHC, post-hydrolysis termination complex: E. coli 70S ribosome labelled with Cy3 at protein L11, deacylated tRNAfMet in the P site and the stop codon UAA in the A site (E. coli) (UniProt P0A7J7); assay: FRET or BRET; single-molecule FRET by TIRF, residence time: RF3-Cy5 (10 nM) with GDPNP (1 mM) on L11-Cy3 PostHC immobilised through mRNA-biotin:neutravidin; with saturating unlabelled RF1 (1 µM)
[5] = biological target: E. coli 70S ribosome termination complex labelled with Cy3 at protein L11 (PreHC, PostHC* or PostHC) (E. coli) (UniProt P0A7J7); assay: FRET or BRET; smFRET (TIRF), RF1(GAQ)-Cy5 (10 nM) on immobilised PreHC labelled at L11-Cy3, with excess unlabelled RF3 (1 µM) and GTP (1 mM); 22°C
[6] = biological target: E. coli 70S ribosome termination complex labelled with Cy3 at protein L11 (PreHC, PostHC* or PostHC) (E. coli) (UniProt P0A7J7); assay: FRET or BRET; smFRET (TIRF), RF1(GAQ)-Cy5 (10 nM) on immobilised PostHC* (puromycin) labelled at L11-Cy3, with excess unlabelled RF3 (1 µM) and GTP (1 mM); 22°C

koff [1]: 1.2 s⁻¹
koff [2]: < 0.2 s⁻¹
Substance: RF1-Cy5 (release factor RF1, single-cysteine variant RF1(S167C) labelled with Cy5) (from UniProt P0A7I0 1-360) (natural protein)

koff [3]: 0.84 s⁻¹
Substance: RF2-Cy5, single-cysteine release factor RF2(C273) labelled with Cy5 (from UniProt P07012 1-365) (natural protein)

koff [4]: 2.5 s⁻¹
Substance: RF3-Cy5, single-cysteine release factor RF3(L233C) labelled with Cy5 (from UniProt P0A7I4 1-529) (natural protein)

koff [5]: < 0.3 s⁻¹
koff [6]: 1.3 s⁻¹
koff of the small fraction (8%) of complexes that release RF1(GAQ) slowly [6]: 0.12 s⁻¹
koff [2]: < 0.2 s⁻¹
Substance: RF1(GAQ)-Cy5 (catalytically impaired RF1(G234A), Cy5-labelled) (from UniProt P0A7I0 1-360) (natural protein)
